{"source": "patent WO2019109974A1", "molecular_target": "hPD-L1(ECD)-mFc (human)", "sequence (chain, as listed by the source limits assumed)": "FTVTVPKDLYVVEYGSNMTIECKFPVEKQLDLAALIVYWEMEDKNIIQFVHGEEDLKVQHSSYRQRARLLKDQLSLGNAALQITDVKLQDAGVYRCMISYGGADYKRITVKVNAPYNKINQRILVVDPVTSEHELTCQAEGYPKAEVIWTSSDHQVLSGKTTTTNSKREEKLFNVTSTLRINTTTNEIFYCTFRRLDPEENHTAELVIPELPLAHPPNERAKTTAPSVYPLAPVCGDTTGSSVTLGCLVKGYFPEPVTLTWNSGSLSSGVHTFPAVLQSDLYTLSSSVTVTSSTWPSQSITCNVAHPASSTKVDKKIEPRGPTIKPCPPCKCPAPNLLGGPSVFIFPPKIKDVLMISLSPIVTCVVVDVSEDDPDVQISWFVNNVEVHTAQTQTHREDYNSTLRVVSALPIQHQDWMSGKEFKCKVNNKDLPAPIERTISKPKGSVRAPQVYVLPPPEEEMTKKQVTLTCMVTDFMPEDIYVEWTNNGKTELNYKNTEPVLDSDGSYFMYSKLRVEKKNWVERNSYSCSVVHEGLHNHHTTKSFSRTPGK", "test": "ELISA, hPD-L1-mFc coated", "data": [{"substance": "Tecentriq (antibody)", "values": [{"measurement": "EC50", "result": 0.142, "unit": "µg/mL"}]}]}
